Consider 25 substances from PMC4072508, “Genome-Wide Prediction and Validation of Peptides That Bind Human Prosurvival Bcl-2 Proteins” (PLoS Computational Biology, 2014).

For assay [1], the target named is T1, Bcl-xL (Homo sapiens, UniProt Q07817).
T1 construct: myc-Bcl-xL SPOT array & FP; made in house
As to the kind of experiment: LUMIER full-length protein interaction. Type of assay: binding. The note with it: LUMIER results for Bcl-xL; for z-score 1.1: experiment 1, duplicate 1; for z-score 1.2: experiment 1, duplicate 2; for z-score 2.1: experiment 2, duplicate 1; for z-score 2.2: experiment 2, duplicate 2. Here is the method: (§1) The LUMIER assay was carried out as previously described with the following modifications. A stable cell line expressing receptor tagged on the N-terminus with Nanoluc luciferase was created (the prey). […] Each bait construct was transfected into the receptor-luciferase cells in a 96-well format and after 48 hours the cells were lysed and transferred to 384-well plates coated with anti-FLAG. After incubation and washing, luminescence was measured to quantify how much receptor-luciferase was captured by the bait protein. Anti-Flag ELISA signal was used to exclude bait proteins that were not expressed. The experiment was carried out two times, each in duplicate.

The target of assay [2] is T2, Mcl-1 (Homo sapiens, UniProt Q07820).
T2 construct: myc-Mcl-1 SPOT array & FP; made in house
T2 sequence (Q07820 with tags, fused parts or gaps): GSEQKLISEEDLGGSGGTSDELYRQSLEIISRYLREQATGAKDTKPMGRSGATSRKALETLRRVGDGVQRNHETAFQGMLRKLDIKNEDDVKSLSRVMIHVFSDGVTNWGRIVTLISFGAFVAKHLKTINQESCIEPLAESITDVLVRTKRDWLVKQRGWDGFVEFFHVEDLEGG
The assay is described as follows: LUMIER full-length protein interaction. Type of assay: binding. The note with it: LUMIER results for Mcl-1, Z-score relative to Gaussian fit of the data; for z-score 1.2: experiment 1, duplicate 2; for z-score 2.1: experiment 2, duplicate 1; for z-score 2.2: experiment 2, duplicate 2. As to the method:
as §1

The mark [3] stands for this setting: Z-score relative to Gaussian fit of the data.
The mark [4] stands for this setting: Z-score of the interaction relative to the Gaussian fit of the data.

Values joined by “and” are separate entries in the source; they are usually repeats but may differ in a detail not shown here. Equal entries are not always repeated.

T1 sequence (Q07817 with tags, fused parts or gaps): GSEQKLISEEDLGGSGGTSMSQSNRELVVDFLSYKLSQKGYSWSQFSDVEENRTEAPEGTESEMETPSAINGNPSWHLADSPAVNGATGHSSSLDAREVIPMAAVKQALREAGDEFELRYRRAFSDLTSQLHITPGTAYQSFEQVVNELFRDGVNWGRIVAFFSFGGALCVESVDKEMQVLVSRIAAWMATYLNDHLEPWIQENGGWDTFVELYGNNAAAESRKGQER

With CTSL2 (SQGKHGFTMAMNAFGDMTNEEFRQMM), in assay [1] (setting [3]), the “z-score 1.1” value is given as -0.437, the “z-score 1.2” value is listed as -1.625 and the “z-score 2.1” value was 0.4619. Besides, in assay [2], the “z-score 1.2” value is -0.01526, the “z-score 2.1” value stood at 0.02916 and the “z-score 2.2” value was -0.562.

As to CYBB (APEEDFFSIHIRIVGDWTEGLFNACG), in assay [1] (setting [3]), the “z-score 1.1” value came out at 0.3673, the “z-score 1.2” value is -1.779, the “z-score 2.1” value is recorded as 0.009756 and the “z-score 2.2” value is on record as -0.6661. Besides, in assay [2], the “z-score 1.2” value is 0.6104, the “z-score 2.1” value is given as -0.8677 and the “z-score 2.2” value is listed as -1.447.

CYP2A6 (MPYMEAVIHEIQRFGDVIPMSLARRV): in assay [1] (setting [3]), the “z-score 1.1” value is -0.01422, the “z-score 1.2” value was -0.04633, the “z-score 2.1” value is listed as -0.5606 and the “z-score 2.2” value is -0.592. In assay [2], the “z-score 1.2” value is -0.6263, the “z-score 2.1” value is listed as -0.8736 and the “z-score 2.2” value was -1.0005.

DHX30 (PVESSWIAPELRLQSDDILPLGKDSG): in assay [1] (setting [3]), the “z-score 1.1” value is 5.589, the “z-score 1.2” value is given as 0.08513, the “z-score 2.1” value was determined as 1.44 and the “z-score 2.2” value came to 1.097. Also, in assay [2], the “z-score 1.2” value was 0.1736, the “z-score 2.1” value worked out at 1.579 and the “z-score 2.2” value was 0.3173.

In the case of DPF3 (SCMATVIHNPLKALGDQFYKEAIEHC), in assay [1] (setting [3]), the “z-score 1.1” value was 4.341, the “z-score 1.2” value worked out at 0.09731, the “z-score 2.1” value was 0.3964 and the “z-score 2.2” value worked out at 0.9401. In assay [2], the “z-score 1.2” value is listed as 0.1193, the “z-score 2.1” value is listed as -0.01021 and the “z-score 2.2” value is on record as -0.07055.

For DSN1 (RAKASSLSEELKHFADGLETDGTLQK), in assay [1] (setting [3]), the “z-score 1.1” value is on record as -1.115, the “z-score 1.2” value is 0.4795, the “z-score 2.1” value is reported as -0.01103 and the “z-score 2.2” value is listed as -0.4978. Also, in assay [2], the “z-score 1.2” value is reported as -0.5012, the “z-score 2.1” value is listed as 0.1019 and the “z-score 2.2” value stood at 0.2829.

In the case of DZIP3 (NGGLLEFHKSLQEIGDKNDHWFDIDP), in assay [1] (setting [3]), the “z-score 1.1” value was determined as 0.7197, the “z-score 1.2” value came to 0.5899, the “z-score 2.1” value amounted to 1.027 and the “z-score 2.2” value was -0.02772. For the same substance, in assay [2], the “z-score 1.2” value was determined as 0.5092, the “z-score 2.1” value turned out to be 0.307 and the “z-score 2.2” value was determined as 0.2898.

With EXOC4 (MQTLSELAKSFQDMADRCLLVLHLEV), in assay [1] (setting [3]), the “z-score 1.1” value was 0.7648, the “z-score 1.2” value is recorded as -1.829 and the “z-score 2.2” value is recorded as -0.5885. For the same substance, in assay [2], the “z-score 1.2” value is listed as -0.5001, the “z-score 2.1” value was found to be 0.001659 and the “z-score 2.2” value was -1.314.

For FADD (APGEEDLCAAFNVICDNVGKDWRRLA), in assay [1] (setting [3]), the “z-score 1.1” value is -1.0584, the “z-score 1.2” value was -0.5034, the “z-score 2.1” value is 0.7016 and the “z-score 2.2” value is 0.6909. For the same substance, in assay [2], the “z-score 1.2” value came to 0.7662 and the “z-score 2.1” value came to 0.7867.

Take FBXL3 (CHGLRELALNYHLLSDELLLALSSEK): in assay [1] (setting [3]), the “z-score 1.1” value is reported as -0.4003, the “z-score 1.2” value is -1.2734, the “z-score 2.1” value worked out at 2.098 and the “z-score 2.2” value was 0.0146. For the same substance, in assay [2], the “z-score 1.2” value is on record as -0.6557, the “z-score 2.1” value was -0.4574 and the “z-score 2.2” value is reported as -0.175.

Consider FOXI1 (PDKRLTLSQIYQYVADNFPFYNKSKA), for which, in assay [1] (setting [3]), the “z-score 1.1” value turned out to be 4.354, the “z-score 1.2” value is -0.599, the “z-score 2.1” value was determined as 1.203 and the “z-score 2.2” value came out at 1.501. Further, in assay [2], the “z-score 1.2” value was found to be 0.03188 and the “z-score 2.2” value is recorded as -0.4966.

Take FUT8 (KKLKNLEGNELQRHADEFLLDLGHHE): in assay [1] (setting [3]), the “z-score 1.1” value was -1.728, the “z-score 1.2” value is recorded as -2.609, the “z-score 2.1” value worked out at 2.234 and the “z-score 2.2” value is listed as -0.644. In assay [2], the “z-score 1.2” value is listed as -0.4768, the “z-score 2.1” value is -0.1664 and the “z-score 2.2” value was -0.7985.

On to GBP6 (NDDTPWIARTLDNLADELTAILSAPA), for which, in assay [1] (setting [3]), the “z-score 1.1” value came to 0.2217, the “z-score 1.2” value was -0.6971, the “z-score 2.1” value is listed as -0.4961 and the “z-score 2.2” value is -0.5692. For the same substance, in assay [2], the “z-score 1.2” value is listed as 0.7158, the “z-score 2.1” value was -0.81 and the “z-score 2.2” value is listed as -1.083.

For the substance HEXDC (VLELHPGAQRLHIGCDEVYYLGEGEA), in assay [1] (setting [3]), the “z-score 1.1” value is recorded as -0.9348, the “z-score 1.2” value was -0.7792, the “z-score 2.1” value is -0.04647 and the “z-score 2.2” value is -0.8049. Moreover, in assay [2], the “z-score 1.2” value is given as -0.6103, the “z-score 2.1” value is given as -1.0129 and the “z-score 2.2” value is given as -1.44.

As for IPO5 (SEIMHSFAKCIEVMGDGCLNNEHFEE), in assay [1] (setting [3]), the “z-score 1.1” value was found to be 8.932, the “z-score 1.2” value was -0.8907, the “z-score 2.1” value came to 0.7008 and the “z-score 2.2” value is 0.6709. In addition, in assay [2], the “z-score 1.2” value was 1.584, the “z-score 2.1” value is 1.802 and the “z-score 2.2” value is 1.866.

For the substance ISOC1 (AGYELLIQKFLSLYGDQIDMHRKFVV), the “z-score 2.2” value in assay [1] (setting [3]) was 0.4271 and 0.3646. In assay [2], the “z-score 2.1” value is 1.04 and 0.6675; the “z-score 2.2” value was 0.5198 and 0.4144.

With MAPT, in assay [1] (setting [3]), the “z-score 1.1” value came out at 0.3413, the “z-score 1.2” value stood at 1.938 and the “z-score 2.1” value is 0.8331. Also, in assay [2], the “z-score 1.2” value turned out to be 0.1627 and the “z-score 2.2” value is listed as 0.6441.

As for NOL8 (KYDPSKYCHNLKKIGEDFSNTIPISS), in assay [1] (setting [3]), the “z-score 1.1” value worked out at 1.001, the “z-score 1.2” value is -1.268, the “z-score 2.1” value is 4.4 and the “z-score 2.2” value is on record as 3.656. In assay [2], the “z-score 1.2” value is on record as 0.3257, the “z-score 2.1” value is on record as 2.02 and the “z-score 2.2” value is 1.79.

NRN1L (DTIYQGFAECLIRLGDSMGRGGELET): in assay [1] (setting [3]), the “z-score 1.1” value was -0.79, the “z-score 1.2” value is -2.494, the “z-score 2.1” value is 0.3656 and the “z-score 2.2” value came to 0.03743. In assay [2], the “z-score 1.2” value is listed as 1.162, the “z-score 2.1” value is given as 0.005652 and the “z-score 2.2” value stood at 1.343.

Turning to P2RX7 (QCPIFRLGDIFRETGDNFSDVAIQGG), in assay [1] (setting [3]), the “z-score 1.1” value came out at 0.2486, the “z-score 1.2” value is reported as -0.6775, the “z-score 2.1” value is 0.2039 and the “z-score 2.2” value is reported as -0.7989. Besides, in assay [2], the “z-score 1.2” value is -0.04596, the “z-score 2.1” value is given as -0.1664 and the “z-score 2.2” value is on record as -0.3437.

Turning to PCNXL2 (LLDFFMVSILFSKLGDLLHKLQFVLT), in assay [1] (setting [3]), the “z-score 1.1” value is listed as -0.7258, the “z-score 1.2” value is 0.8817, the “z-score 2.1” value amounted to 0.72 and the “z-score 2.2” value is reported as 1.005. Further, in assay [2], the “z-score 1.2” value is recorded as -1.056, the “z-score 2.1” value worked out at 0.4915 and the “z-score 2.2” value was -0.3857.

As to PPAT (RLRQLGVAKKFGVLSDNFKGKRIVLV), in assay [1] (setting [3]), the “z-score 1.1” value is recorded as -0.3811, the “z-score 1.2” value was 0.4308, the “z-score 2.1” value is on record as -0.2564 and the “z-score 2.2” value is -0.4829. In assay [2], the “z-score 1.2” value was determined as 0.1831, the “z-score 2.1” value is given as -0.6136 and the “z-score 2.2” value is reported as -0.9152.

For the substance PRCP (DDMFEPHSWNLKELSDDCFQQWGVRP), in assay [1] (setting [3]), the “z-score 1.1” value is recorded as -0.9043, the “z-score 1.2” value was 0.9292, the “z-score 2.1” value worked out at 0.4444 and the “z-score 2.2” value was 1.668. Also, in assay [2], the “z-score 1.2” value worked out at 0.7633, the “z-score 2.1” value amounted to 0.7051 and the “z-score 2.2” value was found to be 0.9311.

PRDX4 (LDFTFVCPTEIIAFGDRLEEFRSINT): in assay [1] (setting [3]), the “z-score 1.1” value is listed as -0.3595, the “z-score 1.2” value was -2.173, the “z-score 2.1” value is on record as -0.3545 and the “z-score 2.2” value is -0.635. Further, in assay [2], the “z-score 1.2” value is on record as -0.5708, the “z-score 2.1” value is given as -0.006199 and the “z-score 2.2” value is on record as -0.3116.

With PRKD3 (IQENVDISTVYQIFADEVLGSGQFGI), in assay [1] (setting [4]), the “z-score 1.1” value was found to be 6.764, the “z-score 1.2” value is on record as -0.4537, the “z-score 2.1” value worked out at 1.665 and the “z-score 2.2” value turned out to be 5.133. Moreover, in assay [2], the “z-score 1.2” value is given as 0.6899, the “z-score 2.1” value worked out at 3.751 and the “z-score 2.2” value was 3.546.
